One block for each molecule: values may come before it.
Columns and labels:
[1] = target: Ago protein from Maribacter polysiphoniae (Maribacter polysiphoniae); assay: cryo-EM structure; TIR-APAZ/Ago with gRNA and target ssDNA (1:1.5:2), tetramer of heterodimers, 2.95 Å
[2] = target: TIR-APAZ protein from Maribacter polysiphoniae (Maribacter polysiphoniae); assay: as above
[3] = target: TIR-APAZ/Ago complex from Maribacter polysiphoniae (Maribacter polysiphoniae); assay: as above
[4] = target: SIR2-APAZ;short prokaryotic Ago (SIR2-APAZ system) (Geobacter sulfurreducens;Geobacter …, UniProt Q74DF6;Q74DF5 1-587;1-473, |); assay: cryo-EM; metal ion at 5'-phosphate; 2 mM MgCl2; heterodimer; 3.0 A; cryo-EM: complex:gRNA:target DNA 1:1.5:2; TIR system 25 mM Tris-HCl pH 7.5, 150 mM NaCl, 2 mM DTT, 2 mM MgCl2; SIR2 system 25 mM HEPES pH 7.9, 150 mM NaCl, 2 mM DTT, 2 mM MgCl2 (gel-filtration buffers); native PAGE conditions not in material; settings: protein: recombinant;recombinant; tags: His-SUMO (N-terminal); copies: 1;1; about 25 bp visible
Sequence of SIR2-APAZ;short prokaryotic Ago (SIR2-APAZ system) (chain, as listed by the source |, chain 1 of 2): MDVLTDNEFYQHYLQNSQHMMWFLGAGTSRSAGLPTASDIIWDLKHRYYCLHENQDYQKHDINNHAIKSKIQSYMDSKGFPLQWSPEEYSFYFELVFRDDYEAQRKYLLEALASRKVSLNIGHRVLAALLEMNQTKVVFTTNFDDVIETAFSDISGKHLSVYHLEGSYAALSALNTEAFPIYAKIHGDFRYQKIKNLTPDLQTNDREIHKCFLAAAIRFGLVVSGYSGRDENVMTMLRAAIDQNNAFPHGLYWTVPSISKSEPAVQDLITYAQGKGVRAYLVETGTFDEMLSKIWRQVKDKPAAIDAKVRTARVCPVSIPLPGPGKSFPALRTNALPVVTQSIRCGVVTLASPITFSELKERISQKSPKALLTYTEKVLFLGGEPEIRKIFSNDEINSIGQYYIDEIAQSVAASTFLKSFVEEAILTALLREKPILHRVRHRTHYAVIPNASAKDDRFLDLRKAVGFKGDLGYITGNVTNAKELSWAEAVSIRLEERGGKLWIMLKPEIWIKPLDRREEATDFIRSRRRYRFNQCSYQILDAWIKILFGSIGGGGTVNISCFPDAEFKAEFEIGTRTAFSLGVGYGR
Sequence of SIR2-APAZ;short prokaryotic Ago (SIR2-APAZ system) (chain, as listed by the source |, chain 2 of 2): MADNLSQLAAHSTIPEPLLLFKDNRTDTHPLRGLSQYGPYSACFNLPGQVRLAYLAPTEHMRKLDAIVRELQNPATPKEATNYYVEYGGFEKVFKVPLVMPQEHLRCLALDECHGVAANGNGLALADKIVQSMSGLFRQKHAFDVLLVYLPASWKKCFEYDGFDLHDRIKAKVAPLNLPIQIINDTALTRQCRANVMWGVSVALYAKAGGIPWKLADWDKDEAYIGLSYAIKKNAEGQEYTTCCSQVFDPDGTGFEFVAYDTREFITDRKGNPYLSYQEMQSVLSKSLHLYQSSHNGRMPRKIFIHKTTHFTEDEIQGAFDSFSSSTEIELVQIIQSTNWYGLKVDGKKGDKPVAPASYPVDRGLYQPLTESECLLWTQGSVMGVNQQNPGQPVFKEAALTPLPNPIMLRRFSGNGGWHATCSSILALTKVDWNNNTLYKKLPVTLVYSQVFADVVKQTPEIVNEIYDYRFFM

Molecule: TIR-APAZ protein from Maribacter polysiphoniae (natural protein)
stoichiometry N [2]: 4

B1: gRNA + target ssDNA (SIR2-APAZ/Ago) (DNA:RNA)
RNA: AUAAUGGUUUCUUAGACGUCGUUUUAGAGCUGUGUUGUUUCG
DNA: CGAAACAACACAGCTCTAAAACGACGTCTAAGAAACCATTAT
modifications: 5'-phosphate on gRNA
binding result [4]: binds

The next lines start with the values.

stoichiometry N [1]: 2
Molecule: Ago protein from Maribacter polysiphoniae (natural protein)

stoichiometry N [3]: 4
Molecule: TIR-APAZ/Ago complex from Maribacter polysiphoniae

Reference: publication PMC10474274, “Structural insights into mechanisms of Argonaute protein-associated NADase activation in bacterial immunity”
